# Assays:
# Test in all cases: MesG/hydroxylamine adenylation assay (pyrophosphate release)
# Format in all cases: biochemical, Bacillus subtilis
# Details in all cases: 5 mM ATP, 5 mM MgCl2, 150 mM hydroxylamine, pH 7.6, 30 °C
# [1] = substrate: CC(C)C[C@H](N)C(=O)O
# [2] = substrate: N[C@@H](Cc1ccccc1)C(=O)O
# [3] = substrate: CSCC[C@H](N)C(=O)O
protein,measurement,setting,value
"SrfAC (Bacillus subtilis subsp. subtilis str. 168) (protein, full module C-A-T-TE, C-terminal His6 tag, holo form, from pTrc99a-srfAC in E. coli HM0079) MSQFSKDQVQDMYYLSPMQEGMLFHAILNPGQSFYLEQITMKVKGSLNIKCLEESMNVIMDRYDVFRTVFIHEKVKRPVQVVLKKRQFHIEEIDLTHLTGSEQTAKINEYKEQDKIRGFDLTRDIPMRAAIFKKAEESFEWVWSYHHIILDGWCFGIVVQDLFKVYNALREQKPYSLPPVKPYKDYIKWLEKQDKQASLRYWREYLEGFEGQTTFAEQRKKQKDGYEPKELLFSLSEAETKAFTELAKSQHTTLSTALQAVWSVLISRYQQSGDLAFGTVVSGRPAEIKGVEHMVGLFINVVPRRVKLSEGITFNGLLKRLQEQSLQSEPHQYVPLYDIQSQADQPKLIDHIIVFENYPLQDAKNEESSENGFDMVDVHVFEKSNYDLNLMASPGDEMLIKLAYNENVFDEAFILRLKSQLLTAIQQLIQNPDQPVSTINLVDDREREFLLTGLNPPAQAHETKPLTYWFKEAVNANPDAPALTYSGQTLSYRELDEEANRIARRLQKHGAGKGSVVALYTKRSLELVIGILGVLKAGAAYLPVDPKLPEDRISYMLADSAAACLLTHQEMKEQAAELPYTGTTLFIDDQTRFEEQASDPATAIDPNDPAYIMYTSGTTGKPKGNITTHANIQGLVKHVDYMAFSDQDTFLSVSNYAFDAFTFDFYASMLNAARLIIADEHTLLDTERLTDLILQENVNVMFATTALFNLLTDAGEDWMKGLRCILFGGERASVPHVRKALRIMGPGKLINCYGPTEGTVFATAHVVHDLPDSISSLPIGKPISNASVYILNEQSQLQPFGAVGELCISGMGVSKGYVNRADLTKEKFIENPFKPGETLYRTGDLARWLPDGTIEYAGRIDDQVKIRGHRIELEEIEKQLQEYPGVKDAVVVADRHESGDASINAYLVNRTQLSAEDVKAHLKKQLPAYMVPQTFTFLDELPLTTNGKVNKRLLPKPDQDQLAEEWIGPRNEMEETIAQIWSEVLGRKQIGIHDDFFALGGHSLKAMTAASRIKKELGIDLPVKLLFEAPTIAGISAYLKNGGSDGLQDVTIMNQDQEQIIFAFPPVLGYGLMYQNLSSRLPSYKLCAFDFIEEEDRLDRYADLIQKLQPEGPLTLFGYSAGCSLAFEAAKKLEEQGRIVQRIIMVDSYKKQGVSDLDGRTVESDVEALMNVNRDNEALNSEAVKHGLKQKTHAFYSYYVNLISTGQVKADIDLLTSGADFDMPEWLASWEEATTGVYRVKRGFGTHAEMLQGETLDRNAEILLEFLNTQTVTVS",Km,[1],0.013 ± 0.001 mM
"SrfAC (Bacillus subtilis subsp. subtilis str. 168; A660V/C752A/F702S) (protein, full module C-A-T-TE, C-terminal His6 tag, holo form, from pTrc99a-srfAC in E. coli HM0079) MSQFSKDQVQDMYYLSPMQEGMLFHAILNPGQSFYLEQITMKVKGSLNIKCLEESMNVIMDRYDVFRTVFIHEKVKRPVQVVLKKRQFHIEEIDLTHLTGSEQTAKINEYKEQDKIRGFDLTRDIPMRAAIFKKAEESFEWVWSYHHIILDGWCFGIVVQDLFKVYNALREQKPYSLPPVKPYKDYIKWLEKQDKQASLRYWREYLEGFEGQTTFAEQRKKQKDGYEPKELLFSLSEAETKAFTELAKSQHTTLSTALQAVWSVLISRYQQSGDLAFGTVVSGRPAEIKGVEHMVGLFINVVPRRVKLSEGITFNGLLKRLQEQSLQSEPHQYVPLYDIQSQADQPKLIDHIIVFENYPLQDAKNEESSENGFDMVDVHVFEKSNYDLNLMASPGDEMLIKLAYNENVFDEAFILRLKSQLLTAIQQLIQNPDQPVSTINLVDDREREFLLTGLNPPAQAHETKPLTYWFKEAVNANPDAPALTYSGQTLSYRELDEEANRIARRLQKHGAGKGSVVALYTKRSLELVIGILGVLKAGAAYLPVDPKLPEDRISYMLADSAAACLLTHQEMKEQAAELPYTGTTLFIDDQTRFEEQASDPATAIDPNDPAYIMYTSGTTGKPKGNITTHANIQGLVKHVDYMAFSDQDTFLSVSNYAFDVFTFDFYASMLNAARLIIADEHTLLDTERLTDLILQENVNVMSATTALFNLLTDAGEDWMKGLRCILFGGERASVPHVRKALRIMGPGKLINAYGPTEGTVFATAHVVHDLPDSISSLPIGKPISNASVYILNEQSQLQPFGAVGELCISGMGVSKGYVNRADLTKEKFIENPFKPGETLYRTGDLARWLPDGTIEYAGRIDDQVKIRGHRIELEEIEKQLQEYPGVKDAVVVADRHESGDASINAYLVNRTQLSAEDVKAHLKKQLPAYMVPQTFTFLDELPLTTNGKVNKRLLPKPDQDQLAEEWIGPRNEMEETIAQIWSEVLGRKQIGIHDDFFALGGHSLKAMTAASRIKKELGIDLPVKLLFEAPTIAGISAYLKNGGSDGLQDVTIMNQDQEQIIFAFPPVLGYGLMYQNLSSRLPSYKLCAFDFIEEEDRLDRYADLIQKLQPEGPLTLFGYSAGCSLAFEAAKKLEEQGRIVQRIIMVDSYKKQGVSDLDGRTVESDVEALMNVNRDNEALNSEAVKHGLKQKTHAFYSYYVNLISTGQVKADIDLLTSGADFDMPEWLASWEEATTGVYRVKRGFGTHAEMLQGETLDRNAEILLEFLNTQTVTVS",Km,[2],1.3 ± 0.1 mM
same,Km,[3],4.6 ± 0.9 mM
same,Km,[1],0.510 ± 0.050 mM

# — article PMC12959268, “Mapping the nonribosomal specificity code through promiscuity-guided A-domain engineering” (Chemical Science, 2026)
